MFI (fluorescence intensity) data for 1 substance are collected here from US20260274952A1.

This test addresses T cell surface antigens CTLA4 and PD-1. Description: flow cytometry, PHA-stimulated CD4+ T cells, antibody 100 nM (PBS 8.39). On the technique in general: In flow cytometry, cells or beads pass a laser one at a time.

Consider hIgG (control) (antibody), for which the MFI (fluorescence intensity) was 10.2.
